Experiment [1] concerns the target T1, AnkG_repeats (24 ANK repeats of rat 190 kDa ankyrin-G, residues 38–855) (rat, UniProt O70511 38-855).
T1 chain: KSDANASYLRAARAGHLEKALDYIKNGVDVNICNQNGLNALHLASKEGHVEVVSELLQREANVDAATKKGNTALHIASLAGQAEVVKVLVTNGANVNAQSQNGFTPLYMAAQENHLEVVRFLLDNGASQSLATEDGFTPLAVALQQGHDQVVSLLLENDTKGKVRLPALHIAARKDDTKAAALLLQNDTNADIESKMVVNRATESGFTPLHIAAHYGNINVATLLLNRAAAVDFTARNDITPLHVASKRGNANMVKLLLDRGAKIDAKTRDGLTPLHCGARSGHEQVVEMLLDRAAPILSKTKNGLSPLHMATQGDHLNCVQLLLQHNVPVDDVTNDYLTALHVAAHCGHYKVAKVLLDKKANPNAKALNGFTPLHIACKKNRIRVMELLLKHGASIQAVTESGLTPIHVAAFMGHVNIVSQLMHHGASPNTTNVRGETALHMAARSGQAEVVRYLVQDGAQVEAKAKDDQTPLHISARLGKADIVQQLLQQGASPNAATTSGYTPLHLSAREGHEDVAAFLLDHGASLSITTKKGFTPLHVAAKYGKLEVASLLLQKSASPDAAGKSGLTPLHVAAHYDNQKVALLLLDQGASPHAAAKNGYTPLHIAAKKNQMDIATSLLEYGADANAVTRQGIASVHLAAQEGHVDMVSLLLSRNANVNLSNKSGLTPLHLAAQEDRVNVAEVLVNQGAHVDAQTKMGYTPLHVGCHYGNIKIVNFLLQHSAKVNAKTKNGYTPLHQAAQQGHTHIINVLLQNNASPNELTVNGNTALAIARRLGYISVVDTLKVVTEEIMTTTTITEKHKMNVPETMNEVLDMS
Briefly: ITC. On the technique in general: Isothermal titration calorimetry measures the heat released or taken up as one component is titrated into another.

Experiment [2] addresses T1, AnkG_repeats (24 ANK repeats of rat 190 …). Briefly: ITC.
Another experiment deals with T2, AnkG_repeats (Rattus norvegicus, UniProt O70511).
T2 construct: thioredoxin-His6 (N); made in house; host or cells: Escherichia coli BL21 (DE3)
T2 sequence (O70511 38-855): T1 chain
Briefly: ITC binding to AnkG_repeats WT. The note with it: 25°C, 50 mM Tris, 100 mM NaCl, 1 mM EDTA, 1 mM DTT, pH 7.5, one-site binding model, AnkG_repeats WT. From the text:
The coding sequences of AnkB_repeats (residues 28–873) were PCR amplified using the full-length human 220 kDa AnkB as the template. The coding sequences of the AnkR constructs, including AnkR_repeats (residues 42–853), and the full length AnkR C-terminal domain (residues 1529–1907), were PCR amplified from a mouse muscle cDNA library. The coding sequence of AnkG_repeats (residues 38–855) were PCR amplified using the full-length rat 190 kDa AnkG as the template. The fusion construct of AnkR_AS and AnkB_repeats was made by standard two-step PCR with a coding sequence of thrombin recognition residues ‘GSLVPRGS’ as the linker. This construct was used to crystallize and determine the complex structure. The same strategy was used in making other fusion constructs, including the Nav1.2_ABD-C/AnkB_repeats_R1–9 fusion construct containing residues 1103–1129 from mouse Nav1.2 and human AnkB residues 28–318 followed by a capping sequence corresponding to the αB of R24 (residues 814–822) and the AnkR_AS/AnkG_repeats fusion construct. For truncation mutations of ANK repeats constructs, the same capping sequence was added to the appropriate region of the C-terminus of each construct for protein stabilization. Mouse Nav1.2 (NP_001092768.1) and mouse neurofascin (CAD65849.1) were used here for studying their interaction with ankyrins. Peptides for mouse KCNQ2 (NP_034741.2, residues 826–845) and mouse Cav1.3 (NP_083257.2, residues 2134–2166) were commercially synthesized. For simplicity, we used human 220 kDa AnkB for the amino acid numbering throughout the manuscript. For the corresponding point mutations made on AnkG_repeats, each residue number should be increased by 10. All point mutations were created using the Quick Change site-directed mutagenesis kit and confirmed by DNA sequencing. […]
Isothermal titration calorimetry (ITC) measurements were carried out on a VP-ITC MicroCal calorimeter (MicroCal, Northampton, MA) at 25°C. […] The titration data were analyzed using the program Origin 7.0 and fitted by the one-site binding model.

Experiment [3] deals with T3, Nav1.2 ABD C-terminal half (UniProt Q99250).
T3 chain: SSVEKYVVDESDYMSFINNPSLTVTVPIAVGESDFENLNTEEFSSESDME

In experiment [4] the target is T4, AnkG ANK repeats R1–6 (truncation of AnkG_repeats with C-terminal capping sequence) (rat | human).
T4 chain: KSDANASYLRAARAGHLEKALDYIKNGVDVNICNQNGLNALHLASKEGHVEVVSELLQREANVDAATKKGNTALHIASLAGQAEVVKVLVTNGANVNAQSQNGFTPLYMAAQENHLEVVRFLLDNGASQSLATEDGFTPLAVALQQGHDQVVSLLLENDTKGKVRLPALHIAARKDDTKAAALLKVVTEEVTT
Briefly: ITC.

For experiment [5], the target named is T5, Nav1.2_ABD (ankyrin binding domain of Nav1.2, residues 1035–1129).
T5 chain: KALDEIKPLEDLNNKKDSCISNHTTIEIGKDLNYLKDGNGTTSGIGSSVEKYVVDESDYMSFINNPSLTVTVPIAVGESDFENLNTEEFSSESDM
Briefly: ITC. The note with it: chain shown with the change.

Experiment [6] concerns the target T5, Nav1.2_ABD (ankyrin binding domain of …). Briefly: ITC. To be noted: chain shown with the change.
Experiment [7] addresses T6, Nfasc_ABD (28-residue fragment of the neurofascin cytoplasmic tail, residues 1187–1214).
T6 chain: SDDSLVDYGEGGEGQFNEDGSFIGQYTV
Briefly: ITC. The note with it: chain shown with the change;; parent: 0.21 ± 0.02.

For experiment [8], the target named is T5, Nav1.2_ABD (ankyrin binding domain of …). Briefly: ITC. To be noted: chain shown with the change.
Experiment [9] has the same target. Briefly: ITC. The note with it: chain shown with the change.
Experiment [10] deals with T7, AnkG_repeats (24 ANK repeats of rat 190 kDa ankyrin-G, residues 38–855), O70511.
T7 chain: T1 chain
Briefly: ITC. To be noted: chain shown with the change.

Where a chain is given by its changes, count along the chain named. Numbers in names are those of the source. Read-outs that look alike come from different tables or passages of the source.

Usually Kd stands for the equilibrium constant for the complex coming apart.

B1: Nav1.2 ABD without the C-terminal less-conserved 10 residues of ABD-C (domain or fragment)
chain: KALDEIKPLEDLNNKKDSCISNHTTIEIGKDLNYLKDGNGTTSGIGSSVEKYVVDESDYMSFINNPSLTVTVPIAVGESDFENLN
Take B1: the Kd in experiment [1] worked out at 170 nM.

B2: Nfasc entire cytoplasmic tail (residues 1132–1240) (domain or fragment)
chain: KRSRGGKYPVREKKDVPLGPEDPKEEDGSFDYSDEDNKPLQGSQTSLDGTIKQQESDDSLVDYGEGGEGQFNEDGSFIGQYTVKKDKEETEGNESSEATSPVNAIYSLA
In the case of B2, the affinity in [2], expressed as Kd, was 580 nM.

B3: ABD-N (1035 - 1102): N-terminal 68-residue fragment of Nav1.2 loop 2 (residues 1035–1102) (protein, UniProt Q99250 1035-1102, looked up, fragment)
chain: ALDEIKPLEDLNNKKDSCISNHTTIEIGKDLNYLKDGNGTTSGIGSSVEKYVVDESDYMSFINNPSLT
B3: the values for the Kd in the experiment with AnkG_repeats and with AnkG_repeats (listed as ABD-N) were 8100 ± 1100 nM and about 8000 nM, respectively.
Turning to MMNEDA [AnkB repeats R1-6], the Kd in [3] was about 2300 nM.
With TVTVPIAVGESDFENLNTEEFSSESDM (domain or fragment) [Nav1.2_ABD-C (27-residue motif of loop 2, residues 1103–1129)], the Kd in experiment [1] turned out to be 2700 nM; in experiment [4] it was 2300 nM.

B4: AnkG_repeats (24 ANK repeats of rat 190 kDa ankyrin-G, residues 38–855), O70511 F131Q; F164Q (protein)
chain: T1 chain with F104Q, F137Q
Regarding B4, the Kd in experiment [5] and in experiment [6] was 6600 nM in each case.

B5: AnkG_repeats (24 ANK repeats of rat 190 kDa ankyrin-G, residues 38–855), O70511 L366Q; F399Q; L432Q (protein)
chain: T1 chain with L339Q, F372Q, L405Q
Take B5: the equilibrium dissociation constant (Kd) in [5] came to 1100 nM; in [7] it was 6000 nM; in experiment [8] it was 1100 nM.

B6: AnkG_repeats (24 ANK repeats of rat 190 kDa ankyrin-G, residues 38–855), O70511 I267Q; L300Q (protein)
chain: T1 chain with I240Q, L273Q
Turning to B6, the dissociation constant Kd was determined as 220 nM in experiment [5], 2800 nM in [7] and 220 nM in experiment [9].

B7: Nav1.2_ABD (ankyrin binding domain of Nav1.2, residues 1035–1129) E1112Q (protein)
chain: T5 chain with E78Q
Molecule B7 showed a Kd in experiment [10] of 4600 nM.

B8: Nav1.2_ABD (ankyrin binding domain of Nav1.2, residues 1035–1129) E1112A (protein)
chain: T5 chain with E78A
B8: the Kd in experiment [10] stood at 4300 nM.
